Measured values published in a protein production outcome set (Wang et al. 2014).

Test: label from the status in PepcDB records
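Note: failed if final PepcDB status was selected cloned or expressed and not failed if soluble or beyond.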

Row | Sequence | protein production
1 | MKKNYMKALVVATTLAIPFATYSTPALAALKVEANQSVAAASDRTYDTEIKIYKDQKDEPSMVSQYIKDPKVTIAAGKKIVTVTMQDSDYFQYLRIEDKNQPGVFHDVKVLSEDKRKNGTKVVQFEIGEFEKKHNMQMHILIPAIGYDHKYQVQFEIKDPTVGNKETEKPDDNSNSGNTETDNPVDNQNMITDNKLRELVNKKVFNRKDLNTPITKEDLLQVKDLFLNTNEILDYSALKYMPNLKSLTVANAKIKDPSFFANLKQLNHLALRGNEFADVTPLVKMDNLESLDLSNNKITNVAPLTEMKNVKSLFLSGNQIEDVTALAKMEQLDYLNLANNKITNVAPLSNLKNVTYLTLAGNQIEDIKPLYTLPLKDLVLTRNKVKDLSGIDQLNQLQELWIGKNEITDVTPLSKMTQLKILNLPNNELKDITPLSSLVNLQKLDLEANYISDLSPVSNLKKLVFLSFVANEIRDVRPVIELSKTAYINVQNQKVFLEETEVNKEVKVPIYEKDGEISTKIRLKSDNGTYSNGVVKWSTPGEKVYEFGVKDPFADTGIFFTGSVIQNVVESKDGNTSKEDEKTEVVEFKDVPKGHWSEEAINYLAKEKLFIGYGNGEFGFGDNITRGQVALLIQRYLKLENNLEQKTAFTDTKGNMYETAIDAVVQAGIMTGYGNGMFRPDGVLTRYEMSVVLQRVFQLKENENSAENFKDVPNGHWAKGYVKALVDNKISKGDGEGNFLGDNFVTREQYAQFLYNAIKK | failed
2 | MSDSLPQRNGGQILVEALRRNAVDTVYCIPGESYLPVLDALYDTDGIRTVVTRHEGAASNMADAYGKLTGRPGICFVTRGPGATHAANGVHTAQQDSTPMILFVGQVESAFKGREAFQEVDYVQMFSGLAKWAVEIDRIERIPEIVGRAFSVATSGRPGPVVVALPEEILFGSAQVADAPEPRVLPGRPGATAMAELRELLANARRPLLVLGGSGWDSAARKRLGAFVEANGLPVATSFRRQDLFDNRDPHYAGQLGFGAAPALLERLRQADLLLVVGARLGETPSAGYSLVRSPAPAQTLIHVHPDSAELNRVYLARLPIQATPCAFAEALADLAPLPSSTWQDWREAAHADYLAYSTPAASDPAVQGVDLASVVAYLSENLPDDAVIANGAGNYAVWVHRFYRYRQARTQLAPTNGAMGYGLPAAIAASLRDPQRSVVCFAGDGCFMMYPQELATAAQFGATPVVIVVNNGMLGTIRMHQEREYPGRVSATRLDNPDFVALARAFGAHAERVECSADFPAAFRRARESGRPALLELLTDPRQITPQA | failed
3 | MGTIKIVTDSSITIEPELIKALDITVVPLSVMIDSKLYSDNDLKEEGHFLSLMKASKSLPKTSQPPVGLFAETYENLVKKGVTDIVAIHLSPALSGTIEASRQGAEIAEAPVTVLDSGFTDQAMKFQVVEAAKMAKAGASLNEILAAVQAIKSKTELYIGVSTLENLVKGGRIGRVTGVLSSLLNVKVVMALKNDELKTLVKGRGNKTFTKWLDSYLAKNSHRPIAEIAISYAGEASLALTLKERIAAYYNHSISVLETGSIIQTHTGEGAFAVMVRYE | not failed
4 | MSLGKRMGAELIGTFWLVLGGCGSAVLAASSPLGIGVLGVAFAFGLTVLTMAFAIGHISGCHLNPAVSFGLVVGGRFPAKELLPYVIAQVIGAILAAGVIYLIASGKAGFELSAGLASNGYADHSPGGYTLGAGFVSEVVMTAMFLVVIMGATDARAPAGFAPIAIGLALTLIHLISIPVTNTSVNPARSTGPALFVGGWALQQLWLFWVAPLIGAAIGGALYRGLAKEP | failed
5 | MLELIIILLFIILSAIFSASETAYTSLSIIQIQDIRKKGKSGISVYNLVQSPSKLITTILIGNNISNIVASTLTTKFVLEKYGNSALAISTGLITIIVLIFAEILPKQIAILNNEIIALSTSFFLKPLIFIFTPLIYIINKIIKKILNLFKVKTSSQMTKESIKNMLSLAGSLGILKNDSRIFMQKMLDIDQVRASEIMTHRTGVFSLSSSSKLKDVIKLIKEEGYSRIPIYKGQSREQIIGILIAKDLIEVNKKDMNKNVSQFIKPAVFVQQNKRIKDILDIMRKKQKIMAIVIDEYGGFSGILTIEDIVEKIFGAISDEYDIKEEKPLITQINDNTYSILGETTFDEIEEAIGISIKHKEYTNTIGGYLIDLLDKIPTKNETVKTNDGEYFIKEIQNNKIETITFIKSKK | failed
6 | MRRLLTAVLISTLGAASLVRADGPAPFSKVFEDISADQPGCAAGVMRGGKVIWSAGYGAADLTTGAAIQADTLFNLASVSKQFTGFAILQLQAQGRLSLEDPVRRFLPELPAYAQGIRIRHLLHHTSGLQDYMLLAELAGIPLSQRFTQQQALDLLVRQNSLMFPPGSEFSYSNSGYVLLSSIVERASGLSLKHYSRANIFLPLGMDHSSIVDQYPVQLPNLARGYEPGGQGKAQVAVDARWEQTGDGQVHSNVADLMRWLRNLSTGRVGGKALVENMRQTEPLNDGDPGYYGMGLANRSYRGLQELSHSGGWAGFNTDVAWYPKLDVATVVLCNSDDGRASERGRQLLDTLLGSPAPSGEADIPPPPPSIRALPKASLKTLVAGTYLDDGGHQLQLRRSGKGWSLETFPDVLPLTRQSDEVLVADNDGTPIYLAATSGGRIALNNPASTYALAPPWKPDDIRPYVGLYTLETSPGQLKVHARQGKLYVRIGLYTYPMQPLTAERFSAGELGVLSFAEQGAVLTSSVARNLRFGKVFAP | failed
7 | MKKIAIFGSAFNPPSLGHKSVIESLSHFDLVLLEPSIAHAWGKNMLDYPIRCKLVDAFIKDMGLSNVQRSDLEQALYQPGQSVTTYALLEKIQEIYPTADITFVIGPDNFFKFAKFYKAEEITERWTVMACPEKVKIRSTDIRNALIEGKDISTYTTPTVSELLLNEGLYR | not failed
8 | MQRANREHLEIISLEEISMLVSSDFDLPEVLQHVTAKVATQLKVSVCNIYLREGDEVVLAATHGFDPAFIGKIRIKIGDGITGSVARDGQYISLSRASQDPRYRYFPELQEEKYNSMLSFPIGDKKEVYGVINLNTTSIRSFHEDEIYFVSIIANLILTAIKLRQQVASSRKAAEASA | not failed
9 | MLAYQGLFQNGLMQVSPSYFSQTYLLGDVNYQTVGLDDKGAIVEKYSDLINSLDDKTNFQLTIFNQKVNLEKFRKSILYPLQEDGFDTYRDELNRMMDANLEAGENNFSAVKFLSFGKSDQTPKLAFRSLSQIGEYFKSGFSEIDVSLGLLGGEERVNVLADMLRGENHLPFSYKDLTLSGQSTKHFIAPTYLSFKHKNHIELDDRLLQIVYVRDYGMELGDKFIRDLMQSDLEVMISLHAKGSTKSETMTKLRTKKTLMESQKIGEQQKMARTGIYLEKVGHVLENNIDEAEALLQTMTQTGDKLFDTVFLIGVLADTEDQLKQSLDIIKQVAGSNDMIIDNLTYMQEAAFNSLLPFGKNYLEGVSRSLLTSNIAVNAPWTSVDIHDKGGKFYGINQISSNIISIDRGKLNTPSGLILGTSGAGKGMATKHEIISTKLKEADSDTEIIIVDPENEYSIIGQAFGGESIDIAPDSTTFLNVLELSDENMDEDPVKVKSEFLLSWIGKLLDRKMDGREKSLIDRVTRLTYKHFDTPSLVEWVFVLSQQPEQEAKDLALDMELYVEGSLDIFSHRTNIKTDSHFLIYNVKKLGDELKQIALMVIFDQIWNRVVKNQKLGKKTWIYFDEMQLLLLDKYASDFFFKLWSRVRKYGAIPTGITQNVETLLLDANGRRIIANSEFMILLKQAKSDREELVHMLGLSKELEKYLVNPEKGAGLIKAGSTVVPFKNKIPQHTKLFDIMSTDPEKMRTLEHHHHHH | failed
10 | MNRNLLYMILRLIFVIVATVAGFYVLLYMSGLIYPFIIAFAFAYLINPVVNFLNQKLQFPRALAVLVSLILVFGAIVGLVTYLVTEAISATTYLLQLVTVKFPDIVTFAQQFALNHIMPLYDDLISKFNHLGEPQRYTITQNIQNLGTEATTQMKELLTAIISGLTNFISALPTTLTVLVFILLATFFISYDWHRLAQKARKLLPNRVHGYGKTIFVDLRKALFGFVKAQLTLVSMTTVIVLIGLLILRVPYAITIAIITGVVDLLPYLGTGAVFVPWVIYVFFTGDTAFAIGLLILYIVVIVQRQIMEPKVLSSNIGLDPLATLVALFVGFKLFGFLGLIIGPVTLVLLNTLHKANVFHDLWKYIKGSPSK | failed
11 | MMTTLQILFWLSLFLVFYTHLGYGILLYMLVKLKELFVKPVRRQLPPDKRLPDVTLFITAFNEEEVVDEKMRNCLGLDYPADKLHIVWTTDGSNDSTNQRLEDWPQATVHFQPLRQGKTAAMTRGMMLVDTPLVVFTDANTMLNREAIREIVRAFEDPKVGCVAGEKRIAVQEKDGAAAGGEGIYWKYESTLKALDARLYSAVGAAGELFAVRRELFTVMEPDTLLDDFILSLRIAMQGYKIAYCTQAYAIESGSADIREEQKRKVRIAAGGLQSIWRLRELLNPFRYGVLTFQYVSHRVLRWSLAPVLLFALLPLNIAILLAGGSPVCYGTILALQLLFYIMGGWGYYLSTRQVKNKLLFIPYYFLFMNINVMKGVNYLRKKKGTGAWEKAKRTKTESLNQ | failed
12 | MTTKRVKKMGKEEMKEMFDLVIYAFNQEPTAERQERFEKLLSHTQSYGFLIDEQLTSQVMATPFQVNFHGVRYPMAGIGYVASYPEYRGEGGISAIMKEMLADLAKQKVALSYLAPFSYPFYRQYGYEQTFEQAEYTIKTEDWPRVKRVPGTIKRVSWADGKEVIKDVYLENQRAHSGGVIRETWWLDYTLNRASKPNNQAIYYSSEGKAEGYVIYRIAAGTFEIVEWNYLTNTAFKALAGFIGSHSGSVQSFHWINGFAGKDLNDLMPTPAASVKILPYMMARIVELQTFLEKYPFQSGEKETYSLEIEDSYGPWNEGIWTITIDEQGKATVTKGAAEKEGTAALKADIQTWTQLFLGYRSAETLSFYERLQGDATIAQRLGQRLVKGMPILEDYF | not failed
13 | MRILIPFKANNPKSRLSSILSEEERKELARLMLLDVIDAAKPFGEIKVVCPSELDVEGVEVVVDTSDLNTTVNKVMDEAPLAVIMSDLPLLSEEVLKRFFETEGDVVVAPGRKGGTNMLLVRKRGFRVSYHFGSFFKHLEMARKMGMKAKIFDSFYSSVDIDDESDLLELMMHGSGKKSYEFLRKIGFSVSFEETPRLERRVFMQ | failed
14 | MATSRLQLEGDDSVHLHITHANLKSFSADARFSPQMSVEAVKEKLWKKCGTSVNSMALELYDDSGSKVAVLSDDSRPLGFFSPFDGFRLHIIDLDPSSVTTGGWLEDTSLVEKYNISEEDYAKRTDSFRKFKEKRVSQNPVAAEAKTKENYMEDLCANIKVGDRCQVEPGEKRGMVKYVGRAESLGPGYWVGIQYDEPLGKHDGMVKGTRFFECPRLQGGMVRPDKVKVGDYPERDPFEEDEI | failed
15 | MTYGEAYLEGWKNIFNYEGVSNRFEFWSFMIGSGVICLLPLLCWWLAVTINNDYGVFIFFALPVSFILTLIFAVPAIALAVRRMHDIGYSGWWVTIAVLIPVTGVILLILCCLPSKSQDQA | failed
16 | MPGDTENTSTDTTNEHIDLALYRQLVKQFIDMRRYSTALFWAEKVAVLGGLEPRDIYYQAQCMYLLGEYHRAAHTIQHHKLEKNSLPCFNLLLESLYAAKEFTEAANVIQNVEVEVMTTSLINQPVDASSGCYLESNSVFGGEENHRNELLSSIYLMKGKVYEALDNRGMAMDFYVQALHKSIYCFEALEALVQHEMLMAWEEFELMHHLPLAQQSSEADAKFILKLYESRLKKYYELISARNAEEMSPIVNPDILQFIKEFTARVQQSGSSDTQMPKVSAVKVPLTPSQFMSPAQKVLEDLKAPTFSLQTSLSKASSLIDASHRSMFDSSSRRRSRDHDTDTLIPIAECLDRVQRSTDLMAAEAEKCFYDCDYKQCLKILNELLKVDPFHNTALTIQIACLVENGDFNRLFYVAHKLVDRYPDKAISWYAVGCYYDMIGKSDPARRYLSKATALDRLYGPAWLAYGHSFANENEHEQAMAAYFKATQLMRGCHLPLLYIGVECGLTKNLELAEKFFLQAMNIAPLDVYVLHELGVIKYEYEFFDGAATIFQCTVDIVKQRAKSNNEEISSRWEPLFINLGHSLRKVHKYEEALYNFQYALLLKPQSPTTYTSIGFIHALLGNLDPAIEAFHKSLALNRDCIVTSTILKSCIEDLMDDSATIDEICSAALRDVAKNITANSRRVLNSDKFNGMKLKFDEEEEFANSDSNMVVEMSFDT | failed
17 | NGNPIPMGYSQAVENNVQITNFALFSAAAIGVELCLFDEQNQETRLPMVRTENVWHLAVTGVKTGTEYAFRIHGEFANPQKLILDPYAKAVNGKPDLSSEESRSWFLLSDNRDNAHLAPRAVVIS | failed
